From article PMC3575510, “Antibiotic Inducibility of the mexXY Multidrug Efflux Operon of Pseudomonas aeruginosa: Involvement of the MexZ Anti-Repressor ArmZ” (PLoS ONE, 2013)

Molecular target: T1, MexZ (LexA DNA-binding domain fusion encoded by pSF004, pMS604::mexZ) (P. aeruginosa, UniProt G3XCU9 1-210)
T1 construct: also called repressor of mexXY; mexZ product; source: E. coli SU202, bacterial two-hybrid fusion expressed from pSF004 (pMS604::mexZ)
T1 sequence: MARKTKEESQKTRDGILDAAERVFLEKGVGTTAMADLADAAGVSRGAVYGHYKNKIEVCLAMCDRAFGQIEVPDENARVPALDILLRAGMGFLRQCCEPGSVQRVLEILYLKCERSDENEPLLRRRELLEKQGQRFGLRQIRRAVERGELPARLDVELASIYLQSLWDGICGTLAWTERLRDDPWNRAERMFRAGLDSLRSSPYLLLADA
Assay: two-hybrid; bacterial LexA-based two-hybrid in E. coli SU202 (pMS604 and pDP804 derivatives); cells grown to mid-log phase in L-broth with 5 mM IPTG; interaction represses lacZ, read as reduced β-galactosidase activity
Settings: partners not purified

B1: ArmZ (PA5471) wild type (LexA DNA-binding domain fusion encoded by pSF005, pDP804::armZ) (natural protein)
chain: MGNYIKPLSAGVALIASDSTWIEGKAIQQLQTTAELDGMCRVVGLPDLHPGRGYPVGAAFFSVGRFYPALVGNDIGCGMALWETGLALGKLSADKLEKRLGNLDLPLDETWSDCIEALDLPAREHWRALGTIGGGNHFAELQQVETVFDQAALHALGLDADRLQLLVHSGSRGLGQAILQEHVSLHGHAGLLDGSLEASAYLARHADALRFAEGNRQLIARRILERLRCDGLELLDINHNLVVPAQVDGVDGWLHRKGATPADQGVLVIPGSRGDYSYLVEPVPSAQSLFSLAHGAGRKWQRGECRERLAARFSVDQLGRTRLGSRVICGDRQLIYEEAPEAYKGIDSVVGALLEAGLLRLVARLKPVLTYKTRGECCR
notes: also called anti-repressor MexZ; ArmZ (WT); source: E. coli SU202, bacterial two-hybrid fusion expressed from pSF005 (pDP804::armZ)
  fold reduction of β-galactosidase activity (relative to SU202 carrying the mexZ plasmid only): 3 fold
